Reference: the nanobody polyreactivity screen of Harvey et al. (2022)

Experiment: yeast display, Sf9 membrane polyspecificity reagent, FACS + sequencing; frameworks hold sequencing errors
Method in brief: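 After 36–48 hours of galactose induction, yeast (Saccharomyces cerevisiae BJ5465) displaying a synthetic nanobody library were stained at 4 °C for 1 hour with 10% biotinylated, detergent-solubilized Sf9 membrane reagent. Streptavidin microbeads enriched the stained cells before FACS sorting into low and high (top ~1%) gates on anti-HA and streptavidin fluorescence. Each clone's polyreactivity label reflects its gate of origin.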

| Sequence | polyreactivity (PSR sort gate) |
| --- | --- |
| QVQLVESGGGLVQAGGSLRLSCAASGSTFWYNAMGWYRQAPGKERELVAAISQSGGRTYYADSVKGRFTISRDNAKNTVYLQMNSLKPEDTAVYYCNAVSRDKSLYDYWGQGTQVTVSS | high polyreactivity |
| QVQLVESGGGLVQAGGSLRLSCAASGSTFWYNAMGWYRQAPGKERELVAAITQSGTRTYYADSVKGRFTISRDNAKNTVFLQMNSLKPEDTAVYYCAAGNAPYYRYGSKKYGYWGQGTQVTVSS | high polyreactivity |
| QVQLVESGGGLVQAGGSLRLSCAASGSTFWYNAMGWYRQAPGKERELVAAITQSGTRTYYADSVKGRFTISRDNAKNTVYLQMNSLKPEDTAVYYCAARGREWYYWGQGTQVTVSS | high polyreactivity |
| QVQLVESGGGLVQAGGSLRLSCAASGSTFWYNAMGWYTQAPGKERELVAAITWTGDGTYYADSVKGRFTISRDNAKNTVYLQMNSLKPEDTAVYYCAAAYFQWSTSIVGLDAWYDYWGQGTQVTVSS | low polyreactivity |
| QVQLVESGGGLVQAGGSLRLSCAASGSTFWYNMGWYRQAPGKERELVAAISYSSGRTYYADSVKGRFTISRDNAKNTVYLQMNSLKPEDTAVYYCAARYPRTRRYGYWGQGTQVTVSS | high polyreactivity |
| QVQLVESGGGLVQAGGSLRLSCAASGSTFWYYAMGWSRQAPGKERELVAAIRWSDGSTYYADSVKGRFTISRDNAKNTVYLQMNSLKPEDTAVYYCEYYYWGLGTQVTVSS | low polyreactivity |
| QVQLVESGGGLVQAGGSLRLSCAASGSTFWYYGMGWYRQAPGKERELVAAITRGGSTYYADSVKGRFTISRDNAKNTVYLQMNSLKPEDTAVYYCAAGISVRWSPSYYYWGQGTQVTVSS | high polyreactivity |
| QVQLVESGGGLVQAGGSLRLSCAASGSTFWYYVMGWYRQAPGKERELVAAISTRGDSTYYADSVKGRFTISRDNAKITVYFQMNSLKPEDTAVFDCAKSRQYSGRVRFDYWGKGTQVTVSS | low polyreactivity |
| QVQLVESGGGLVQAGGSLRLSCAASGSTFYANAMGWYRQAPGKERELVAAISYSGGGTNYADSVKGRFTISRDNAKNTVYLQMISLKPEDTAVYYCAKRRDYDRYRYKKTSSVRGDYWGQGTQVTVSS | low polyreactivity |
| QVQLVESGGGLVQAGGSLRLSCAASGSTFYAYAMGWYRQAPGKERELVAAIDSGGSTYYADSVKGRFPISRDNAKNTVYFQMNSLNPEDTAVYYCAVRHRYTRAYWGRDYWGQGTQVTVSS | low polyreactivity |
| QVQLVESGGGLVQAGGSLRLSCAASGSTFYAYAMGWYRQAPGKERELVAAISSDGTNYADSVKGRFTISRDNAKNTVYLQMNSLKPEDTAVYYCAADEASSRGYYDYDYWGQGTQVTVSS | low polyreactivity |
| QVQLVESGGGLVQAGGSLRLSCAASGSTFYAYDMGWYRQAPGKERELVAAISSGGSTYYADSVKGRFTISRDNAKNTVYLQMNSLKPEDTAVYYCAPEYTYELEASEPSDYDYWGQGTQVTVSS | low polyreactivity |
| QVQLVESGGGLVQAGGSLRLSCAASGSTFYAYDMGWYRQAPGKERELVAAISSGGSTYYADSVKGRFTISRDNAKNTVYLQMNSLKPEDTAVYYCATEYTYELEASEPSDYDYWGQGTQVTVSS | low polyreactivity |
| QVQLVESGGGLVQAGGSLRLSCAASGSTFYAYGMGWYRQAPGKERELVATITWSGGSTYYADSVKGRFTISRDNAKNTVYLQMNSLKPEDTAVYYCAARSPFPTIADGDYWGQGTQVTVSS | low polyreactivity |
| QVQLVESGGGLVQAGGSLRLSCAASGSTFYAYTMGWYRQAPGKERELVAAITGRGGRTYYADSVKGRFTISRDNAKNTVYLQMNSLKPEDTAVYYCAAVYRKYPYSDYDYWGQGTQVTVSS | high polyreactivity |
| QVQLVESGGGLVQAGGSLRLSCAASGSTFYDYAMGWYRQAPGKERELVAAITSGGSTDYADSVKGRFTISRDNAKNTVYLQMNSLKPEDTAVYYCATDTDSNYISHQFVWYDYWGQGTQVTVSS | low polyreactivity |
| QVQLVESGGGLVQAGGSLRLSCAASGSTFYDYDMGWYSQAPGKESELVAAITSGGSTKYADSVKGRFTISRDNAKNTVYLQMNSLKPEDTAVYYCNADSQRPAYWDGYWGQGTKVTVSS | low polyreactivity |
